Measured values as given in IntAct's records for PubMed 20553494.

B1: Homeobox protein Meis2 (Homo sapiens), O14770-4 (parent)
chain: MAQRYDELPHYGGMDGVGVPASMYGDPHAPRPIPPVHHLNHGPPLHATQHYGAHAPHPNVMPASMGSAVNDALKRDKDAIYGHPLFPLLALVFEKCELATCTPREPGVAGGDVCSSDSFNEDIAVFAKQVRAEKPLFSSNPELDNLMIQAIQVLRFHLLELEKVHELCDNFCHRYISCLKGKMPIDLVIDERDGSSKSDHEELSGSSTNLADHNPSSWRDHDDATSTHSAGTPGPSSGGHASQSGDNSSEQGDGLDNSVASPGTGDDDDPDKDKKRQKKRGIFPKVATNIMRAWLFQHLTHPYPSEEQKKQLAQDTGLTILQVNNWFINARRRIVQPMIDQSNRAVSQGAAYSPEGQPMGSFVLDGQQHMGIRPAGLQSMPGDYVSQGGPMGMSMAQPSYTPPQMTPHPTQLRHGPPMHSYLPSHPHHPAMMMHGGPPTHPGMTMSAQSPTMLNSVDPNVGGQVMDIHAQ
partner: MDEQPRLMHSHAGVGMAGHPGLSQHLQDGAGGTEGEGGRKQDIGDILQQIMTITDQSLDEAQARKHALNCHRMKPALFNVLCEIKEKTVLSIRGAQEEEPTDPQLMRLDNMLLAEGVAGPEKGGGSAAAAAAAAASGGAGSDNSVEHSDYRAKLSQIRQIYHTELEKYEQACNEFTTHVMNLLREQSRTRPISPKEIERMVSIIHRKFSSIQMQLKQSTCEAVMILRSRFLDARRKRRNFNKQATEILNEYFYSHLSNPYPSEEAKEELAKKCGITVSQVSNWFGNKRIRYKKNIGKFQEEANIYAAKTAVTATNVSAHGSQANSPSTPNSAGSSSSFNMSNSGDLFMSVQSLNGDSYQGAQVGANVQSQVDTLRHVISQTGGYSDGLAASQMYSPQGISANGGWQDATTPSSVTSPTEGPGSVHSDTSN

Variants of: B1
Details: with pbx1_human PBX1, P40424

Variant | effect of a mutation on the interaction
I151A | decreasing interaction
L154A | decreasing interaction

Variants of: B1
Details: with pbx1_human PBX1, P40424
Remark: another data set of the same source

Variant | effect of a mutation on the interaction
K95N | decreasing interaction
E97T | decreasing interaction
C96G | decreasing interaction
E94N | decreasing interaction

Variants of: B1
Details: with pbx1_human PBX1, P40424
Remark: another data set of the same source

Variant | effect of a mutation on the interaction
L161A | decreasing interaction
L159A | decreasing interaction
L158A | decreasing interaction

Variants of: B1
Details: with pbx1_human PBX1, P40424
Remark: another data set of the same source

Variant | effect of a mutation on the interaction
K163A | decreasing interaction
E160A | decreasing interaction
E162A | decreasing interaction

Variants of: B1
Details: with pbx1_human PBX1, P40424
Remark: another data set of the same source

Variant | effect of a mutation on the interaction
L85A | decreasing interaction
L88A | decreasing interaction
